Numbering of substitutions follows the chain as printed.

B1: AMOTL2 R14: AMOTL2, R14 to alanine (protein, UniProt Q9Y2J4 1-779, looked up, variant R14A)
Angiomotin-like protein 2: MRTLEDSSGTVLHALIQEQLRYGNLTETRTLLAIQQQALRGGAGTGGTGSPQASLEILAPEDSQVLQQATRQEPQGQEHQGGENHLAENTLYRLCPQPSKGEELPTYEEAKAHSQYYAAQQAGTRPHAGDRDPRGAPGGSRRQDEALRELRHGHVRSLSERLLQLSLERNGARAPSHMSSSHSFPQLARNQQGPPLRGPPAEGPESRGPPPQYPHVVLAHETTTAVTDPRYRARGSPHFQHAEVRILQAQVPPVFLQQQQQYQYLQQSQEHPPPPHPAALGHGPLSSLSPPAVEGPVSAQASSATSGSAHLAQMEAVLRENARLQRDNERLQRELESSAEKAGRIEKLESEIQRLSEAHESLTRASSKREALEKTMRNKMDSEMRRLQDFNRDLRERLESANRRLASKTQEAQAGSQDMVAKLLAQSYEQQQEQEKLEREMALLRGAIEDQRRRAELLEQALGNAQGRAARAEEELRKKQAYVEKVERLQQALGQLQAACEKREQLELRLRTRLEQELKALRAQQRQAGAPGGSSGSGGSPELSALRLSEQLREKEEQILALEADMTKWEQKYLEERAMRQFAMDAAATAAAQRDTTLIRHSPQPSPSSSFNEGLLTGGHRHQEMESRLKVLHAQILEKDAVIKVLQQRSRRDPGKAIQGSLRPAKSVPSVFAAAAAGTQGWQGLSSSERQTADAPARLTTDRAPTEEPVVTAPPAAHAKHGSRDGSTQTEGPPDSTSTCLPPEPDSLLGCSSSQRAASLDSVATSRVQDLSDMVEILI
B2: AMOTL2 L31: AMOTL2, L31 to alanine (protein, UniProt Q9Y2J4 1-779, looked up, variant L31A)
Angiomotin-like protein 2: B1 Angiomotin-like protein 2 with A14R, L31A
B3: AMOTL2 R29: AMOTL2, R29 to alanine (protein, UniProt Q9Y2J4 1-779, looked up, variant R29A)
Angiomotin-like protein 2: B1 Angiomotin-like protein 2 with A14R, R29A
B4: AMOTL2 V11: AMOTL2, V11 to alanine (protein, UniProt Q9Y2J4 1-779, looked up, variant V11A)
Angiomotin-like protein 2: B1 Angiomotin-like protein 2 with V11A, A14R
B5: AMOTL2 Q36: AMOTL2, Q36 to alanine (protein, UniProt Q9Y2J4 1-779, looked up, variant Q36A)
Angiomotin-like protein 2: B1 Angiomotin-like protein 2 with A14R, Q36A
B6: AMOTL2 Q17: AMOTL2, Q17 to alanine (protein, UniProt Q9Y2J4 1-779, looked up, variant Q17A)
Angiomotin-like protein 2: B1 Angiomotin-like protein 2 with A14R, Q17A
B7: AMOTL2 Q19: AMOTL2, Q19 to alanine (protein, UniProt Q9Y2J4 1-779, looked up, variant Q19A)
Angiomotin-like protein 2: B1 Angiomotin-like protein 2 with A14R, Q19A
B8: AMOTL2 Q37: AMOTL2, Q37 to alanine (protein, UniProt Q9Y2J4 1-779, looked up, variant Q37A)
Angiomotin-like protein 2: B1 Angiomotin-like protein 2 with A14R, Q37A
B9: AMOTL2 L12: AMOTL2, L12 to alanine (protein, UniProt Q9Y2J4 1-779, looked up, variant L12A)
Angiomotin-like protein 2: B1 Angiomotin-like protein 2 with L12A, A14R
B10: AMOTL2 I34: AMOTL2, I34 to alanine (protein, UniProt Q9Y2J4 1-779, looked up, variant I34A)
Angiomotin-like protein 2: B1 Angiomotin-like protein 2 with A14R, I34A
B11: AMOTL2 R21: AMOTL2, R21 to alanine (protein, UniProt Q9Y2J4 1-779, looked up, variant R21A)
Angiomotin-like protein 2: B1 Angiomotin-like protein 2 with A14R, R21A
B12: AMOTL2 E27: AMOTL2, E27 to alanine (protein, UniProt Q9Y2J4 1-779, looked up, variant E27A)
Angiomotin-like protein 2: B1 Angiomotin-like protein 2 with A14R, E27A
B13: AMOTL2 Q35: AMOTL2, Q35 to alanine (protein, UniProt Q9Y2J4 1-779, looked up, variant Q35A)
Angiomotin-like protein 2: B1 Angiomotin-like protein 2 with A14R, Q35A
B14: AMOTL2 L15: AMOTL2, L15 to alanine (protein, UniProt Q9Y2J4 1-779, looked up, variant L15A)
Angiomotin-like protein 2: B1 Angiomotin-like protein 2 with A14R, L15A
B15: AMOTL2 L20: AMOTL2, L20 to alanine (protein, UniProt Q9Y2J4 1-779, looked up, variant L20A)
Angiomotin-like protein 2: B1 Angiomotin-like protein 2 with A14R, L20A
B16: AMOTL2 T10: AMOTL2, T10 to alanine (protein, UniProt Q9Y2J4 1-779, looked up, variant T10A)
Angiomotin-like protein 2: B1 Angiomotin-like protein 2 with T10A, A14R
B17: AMOTL2 I16: AMOTL2, I16 to alanine (protein, UniProt Q9Y2J4 1-779, looked up, variant I16A)
Angiomotin-like protein 2: B1 Angiomotin-like protein 2 with A14R, I16A
B18: AMOTL2 E18: AMOTL2, E18 to alanine (protein, UniProt Q9Y2J4 1-779, looked up, variant E18A)
Angiomotin-like protein 2: B1 Angiomotin-like protein 2 with A14R, E18A
B19: AMOTL2 T28: AMOTL2, T28 to alanine (protein, UniProt Q9Y2J4 1-779, looked up, variant T28A)
Angiomotin-like protein 2: B1 Angiomotin-like protein 2 with A14R, T28A
B20: AMOTL2 L32: AMOTL2, L32 to alanine (protein, UniProt Q9Y2J4 1-779, looked up, variant L32A)
Angiomotin-like protein 2: B1 Angiomotin-like protein 2 with A14R, L32A
B21: AMOTL2 Y22: AMOTL2, Y22 to alanine (protein, UniProt Q9Y2J4 1-779, looked up, variant Y22A)
Angiomotin-like protein 2: B1 Angiomotin-like protein 2 with A14R, Y22A
B22: AMOTL2 T30: AMOTL2, T30 to alanine (protein, UniProt Q9Y2J4 1-779, looked up, variant T30A)
Angiomotin-like protein 2: B1 Angiomotin-like protein 2 with A14R, T30A
B23: CDCA4 V66: CDCA4, V66 to alanine (protein, UniProt Q9BXL8 1-241, looked up, variant V66A)
Cell division …: MFARGLKRKCVGHEEDVEGALAGLKTVSSYSLQRQSLLDMSLVKLQLCHMLVEPNLCRSVLIANTARQIQEEMTQDGTWRTVAPQAAERAPLDRLVSTEILCRAAWGQEGAHPAPGLGDGHTQGPVSDLCPVTSAQAPRHLQSSAWEMDGPRENRGSFHKSLDQIFETLETKNPSCMEELFSDVDSPYYDLDTVLTGMMGGARPGPCEGLEGLAPATPGPSSSCKSDLGELDHVVEILVET
B24: CDCA4 V43: CDCA4, V43 to alanine (protein, UniProt Q9BXL8 1-241, looked up, variant V43A)
Cell division …: B23 Cell division … with V43A, A66V
B25: CDCA4 L42: CDCA4, L42 to alanine (protein, UniProt Q9BXL8 1-241, looked up, variant L42A)
Cell division …: B23 Cell division … with L42A, A66V

The first assay has as its system PP2A-B55α. Put plainly: Single alanine mutational scan, YFP-tagged interactors immunoprecipitated from HeLa cells, Western blot. In kind it is binding, human. Conditions: single alanine mutant of YFP-tagged AMOTL2.
B1: the Experimental % binding turned out to be 15%.

For the molecule B2, the Experimental % binding amounted to 115%.

Molecule B3 registered an Experimental % binding of 4%.

The molecule B4 registered an Experimental % binding of 114%.

Take B5: the Experimental % binding stood at 76%.

For B6, the Experimental % binding was found to be 143%.

As to B7, the Experimental % binding came out at 120%.

Molecule B8 registered an Experimental % binding of 44%.

Molecule B9 yielded an Experimental % binding of 88%.

Molecule B10 gave an Experimental % binding of 15%.

As to B11, the Experimental % binding was determined as 60%.

Turning to B12, the Experimental % binding is 165%.

B13 came in with an Experimental % binding of 61%.

Molecule B14 returned an Experimental % binding of 32%.

Regarding B15, the Experimental % binding came to 98%.

B16 came in with an Experimental % binding of 104%.

In the case of B17, the Experimental % binding is 32%.

With B18, the Experimental % binding stood at 133%.

In turn, B19 displayed an Experimental % binding of 4%.

In turn, B20 returned an Experimental % binding of 118%.

B21 showed an Experimental % binding of 25%.

B22 displayed an Experimental % binding of 85%.

The same assay, now with this note: single alanine mutant of YFP-tagged CDCA4.
The molecule B23 yielded an Experimental % binding of 38%.

Regarding B24, the Experimental % binding is given as 81%.

The molecule B25 displayed an Experimental % binding of 129%.

For the origin of these results see paper PMC11446282.
